The values below come from the RNAGym collection of RNA variant scans (doi:10.7554/elife.80360).

First the molecules themselves.
B1: CPEB3 Ribozyme (parent)
chain: GGGGGCCACAGCAGAAGCGUUCACGUCGCGGCCCCUGUCAGAUUCUGGUGAAUCUGCGAAUUCUGCUGU

The variants in this data set derive from B1. Nature of the data set: self-cleavage, relative activity (ratio to wild type); higher = more cleavage; co-transcriptional.
Turning to A15G A51C, the self-cleavage is 0.993.

On to A15G G31A, for which the self-cleavage came to 0.874. As to A15G G31C, the self-cleavage stood at 0.204. Take A15C C54A: the self-cleavage was determined as 0.447. In the case of A15C C54G, the self-cleavage was 0.567.

Consider A15C C54U, for which the self-cleavage came to 0.865. In the case of A15C U46A, the self-cleavage is 0.93. For A15C U46C, the self-cleavage was found to be 0.88. As to A15G C32A, the self-cleavage was determined as 0.816. For A15G C32U, the self-cleavage is 1.02.

On to G14U C32A, for which the self-cleavage is 0.333. As for G14U C32U, the figure is 0.816. Regarding A15U A42U, the self-cleavage amounted to 0.613. Regarding A15U A42C, the self-cleavage turned out to be 0.594. To A15C G58A belongs 0.809. As for A15C G58C, the self-cleavage came out at 0.84. For the variant A15G C24A, the self-cleavage was determined as 0.691. With A15C C35G, the self-cleavage is 0.285. As for A15C C35A, the self-cleavage was 0.229. Turning to A15G C29G, the self-cleavage was found to be 0.458. As for A15G C29A, the figure is 0.636; as for A15G U64G, 0.918; as for A15G C45G, 0.965. With A15G C45A, the self-cleavage came to 1. As for A15G C45U, the self-cleavage amounted to 1.02.

For the variant G14U C18G, the self-cleavage worked out at 0.0825.

Turning to G14U C18A, the self-cleavage was found to be 0.142.

With G14U C18U, the self-cleavage was determined as 0.225. Consider G14U G68U, for which the self-cleavage is 0.816. Regarding G14U G31A, the self-cleavage is 0.305.

With G14U G31C, the self-cleavage was 0.163. On to G14U G31U, for which the self-cleavage was 0.164. On to A15G G17U, for which the self-cleavage came to 0.424. For A15G G17A, the self-cleavage is 0.312. Take G14U A60G: the self-cleavage was found to be 0.4.

A15G G28A: the self-cleavage was determined as 0.179. For the variant A15G G28U, the self-cleavage amounted to 0.141. Consider A15C U53A, for which the self-cleavage is 0.651. For A15G G58C, the self-cleavage was found to be 1.01.

For the variant A15G G58U, the self-cleavage stood at 0.978. In the case of G14U C39U, the self-cleavage is 0.394. For G14U C39G, the self-cleavage was found to be 0.373. On to A15G C63G, for which the self-cleavage worked out at 0.674. As for A15G C63U, the self-cleavage came to 0.947. With A15G C63A, the self-cleavage was found to be 0.799.

With A15C G28U, the self-cleavage was determined as 0.191. Regarding A15C G28C, the self-cleavage is 0.146. To A15C G28A belongs 0.138. For A15C U67G, the self-cleavage was found to be 0.934. With A15C G47U, the self-cleavage turned out to be 0.916. As for G14U C27U, the self-cleavage was found to be 0.15. Take G14U U38A: the self-cleavage was 0.566.

Take G14U U38C: the self-cleavage turned out to be 0.573. On to G14U U38G, for which the self-cleavage was 0.111. In the case of A15C C27G, the self-cleavage amounted to 0.123.

A15C C27U: the self-cleavage was found to be 0.119.

With G14U G47A, the self-cleavage was found to be 0.836. Consider G14U G47U, for which the self-cleavage came to 0.857. Take G14U G47C: the self-cleavage worked out at 0.877. On to G14U C66G, for which the self-cleavage is 0.325.

G14U C66A: the self-cleavage came out at 0.374. Regarding A15G G50A, the self-cleavage stood at 0.973.

For the variant G14U U61C, the self-cleavage worked out at 0.367. In the case of G14U U61G, the self-cleavage amounted to 0.432.

For G14U U43C, the self-cleavage came to 0.472. For the variant G14U U43G, the self-cleavage was determined as 0.278. To A15G G41U belongs 0.891; to A15G U36G, 0.152; to A15G U36A, 0.203. As for A15G U36C, the figure is 0.966; as for A15C C22U, 0.2. As for A15C U61G, the figure is 0.723. Regarding A15C U61A, the self-cleavage was 0.468. For the variant A15C U61C, the self-cleavage turned out to be 0.356.

On to A15G G56U, for which the self-cleavage worked out at 0.985. Take A15G G56C: the self-cleavage amounted to 0.785. To A15G G56A belongs 0.944; to A15G U21A, 0.956; to A15G U21G, 0.578. Turning to G14U C35G, the self-cleavage worked out at 0.309. Turning to G14U C35U, the self-cleavage was determined as 0.601. To A15C G56A belongs 0.651; to A15C G56U, 0.626.

Take A15C C39G: the self-cleavage was 0.596. Take A15C C39U: the self-cleavage is 0.535. A15G C18A: the self-cleavage turned out to be 0.192. Turning to A15G C18G, the self-cleavage is 0.198. On to A15G C18U, for which the self-cleavage turned out to be 0.792. On to G14U G17A, for which the self-cleavage turned out to be 0.145.

As to G14U G17U, the self-cleavage turned out to be 0.161.

Turning to A15C G17U, the self-cleavage came out at 0.25. Take A15C G17A: the self-cleavage was 0.136.

Consider A15G C54A, for which the self-cleavage is 0.914. With A15G C54G, the self-cleavage was 0.886. To A15G C54U belongs 1.04. Consider G14U C34A, for which the self-cleavage was found to be 0.526. Turning to G14U C34U, the self-cleavage came to 0.833.

With G14U C34G, the self-cleavage came to 0.347. Regarding G14U C22U, the self-cleavage was 0.15. Consider G14U C22A, for which the self-cleavage was found to be 0.15. Take A15C U20C: the self-cleavage worked out at 0.284. Turning to A15C U20A, the self-cleavage worked out at 0.125. For A15C U20G, the self-cleavage turned out to be 0.139.

For the variant G14U G25U, the self-cleavage was determined as 0.124.

G14U G25C: the self-cleavage was determined as 0.204. Regarding G14U G25A, the self-cleavage came to 0.141. For G14U A59U, the self-cleavage was 0.365.

A15C C32G: the self-cleavage worked out at 0.153. As to A15C C32A, the self-cleavage was found to be 0.302. In the case of A15G A16G, the self-cleavage was found to be 0.93.

Take A15G A16U: the self-cleavage stood at 0.691.

Take A15G G65C: the self-cleavage came out at 0.825.

Regarding A15G G65U, the self-cleavage came out at 0.784. For G14U U62C, the self-cleavage amounted to 0.364. As for G14U U62G, the figure is 0.513. For A15C U43C, the self-cleavage amounted to 0.754. In the case of A15G U67G, the self-cleavage was 0.996.

Turning to A15G U67C, the self-cleavage stood at 0.943. As for A15G U67A, the self-cleavage is 0.971. As for G14U G19A, the figure is 0.148; as for A15C A42U, 0.618.

Turning to A15C A42G, the self-cleavage came out at 0.678. With A15C A42C, the self-cleavage came out at 0.602.

As for A15G C34U, the self-cleavage was found to be 1.01.

As for A15G C34G, the self-cleavage amounted to 0.665.

Take A15G C34A: the self-cleavage came out at 0.764. For the variant G14U G48A, the self-cleavage was determined as 0.893.

For A15G U20G, the self-cleavage stood at 0.161.

On to A15G U20A, for which the self-cleavage amounted to 0.092.

A15G U38G: the self-cleavage came out at 0.157.

As to A15G U38C, the self-cleavage was 0.97. As for A15G U61C, the figure is 0.892; as for A15G U61A, 0.982. For the variant A15G U61G, the self-cleavage came out at 0.822. As for G14U U46A, the self-cleavage was found to be 0.862.

On to G14U U46C, for which the self-cleavage amounted to 0.758.

In the case of A15C U21A, the self-cleavage was 0.791. As to A15C U21C, the self-cleavage was determined as 0.51.

For A15G C33G, the self-cleavage came out at 0.534. For A15G C33U, the self-cleavage was determined as 0.999. Consider A15G C33A, for which the self-cleavage worked out at 0.798. With A15G G37U, the self-cleavage came to 0.286. For A15G G37A, the self-cleavage was 0.27. For A15U A40C, the self-cleavage came to 0.287. Regarding A15U A40G, the self-cleavage was determined as 0.697. Turning to A15U A16C, the self-cleavage was determined as 0.135. For the variant A15U A16U, the self-cleavage was found to be 0.798. Consider A15U A59C, for which the self-cleavage is 0.42. As for A15U A59U, the self-cleavage is 0.331. Turning to A15U A59G, the self-cleavage was 0.856. Consider A15G C57G, for which the self-cleavage is 0.259.

Turning to A15G C57A, the self-cleavage was 0.45.

Turning to A15C A40G, the self-cleavage is 0.626. On to A15C A40C, for which the self-cleavage worked out at 0.137.

With A15C A16C, the self-cleavage stood at 0.111. In the case of A15C A16G, the self-cleavage stood at 0.142. In the case of A15C A16U, the self-cleavage stood at 0.49. For the variant A15C G65A, the self-cleavage stood at 0.43. With A15C C24A, the self-cleavage amounted to 0.273.

Take A15C C24U: the self-cleavage was found to be 0.27. To A15G U53C belongs 0.859.

Take A15G U53G: the self-cleavage turned out to be 0.958. In the case of A15C A60C, the self-cleavage stood at 0.308. To A15C A60U belongs 0.377. To A15C A60G belongs 0.292; to A15G C66U, 0.964.

Consider A15G C66A, for which the self-cleavage is 0.828.
